Laboratory results: PMC2795164, “VEZF1 Elements Mediate Protection from DNA Methylation”

T1: VEZF1 (BGP1) (Gallus gallus (chicken), UniProt I6LDD9 1-555)
T1 sequence: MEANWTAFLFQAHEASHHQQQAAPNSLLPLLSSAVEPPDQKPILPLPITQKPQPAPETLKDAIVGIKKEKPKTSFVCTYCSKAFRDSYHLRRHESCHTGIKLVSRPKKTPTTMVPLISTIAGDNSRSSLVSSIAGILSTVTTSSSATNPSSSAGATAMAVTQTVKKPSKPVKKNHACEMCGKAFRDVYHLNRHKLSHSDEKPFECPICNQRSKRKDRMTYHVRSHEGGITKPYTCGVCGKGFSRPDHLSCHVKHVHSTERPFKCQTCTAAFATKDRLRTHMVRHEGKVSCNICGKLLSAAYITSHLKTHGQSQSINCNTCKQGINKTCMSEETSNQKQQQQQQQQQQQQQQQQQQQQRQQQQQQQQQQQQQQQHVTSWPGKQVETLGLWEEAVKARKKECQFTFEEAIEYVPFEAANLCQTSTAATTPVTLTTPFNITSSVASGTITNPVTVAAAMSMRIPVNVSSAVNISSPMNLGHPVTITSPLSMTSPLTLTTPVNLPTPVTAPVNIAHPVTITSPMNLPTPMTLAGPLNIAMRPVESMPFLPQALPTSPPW

T2: ZF5, recombinant (Gallus gallus (chicken), UniProt Q92010 1-448, R436A)
T2 sequence: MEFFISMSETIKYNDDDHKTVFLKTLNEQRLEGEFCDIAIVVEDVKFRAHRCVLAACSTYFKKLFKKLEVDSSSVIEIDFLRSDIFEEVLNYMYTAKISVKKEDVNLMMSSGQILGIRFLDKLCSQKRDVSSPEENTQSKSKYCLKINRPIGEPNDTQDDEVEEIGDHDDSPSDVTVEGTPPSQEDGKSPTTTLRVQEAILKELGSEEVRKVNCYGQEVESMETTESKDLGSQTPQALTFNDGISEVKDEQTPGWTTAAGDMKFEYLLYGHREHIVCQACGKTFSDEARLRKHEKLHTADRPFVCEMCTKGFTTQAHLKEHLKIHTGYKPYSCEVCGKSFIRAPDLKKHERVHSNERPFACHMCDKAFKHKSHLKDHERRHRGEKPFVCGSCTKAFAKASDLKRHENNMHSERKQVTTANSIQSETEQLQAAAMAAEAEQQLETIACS


Tests used:
SP3, recombinant = SP3, recombinant (Gallus gallus (chicken), UniProt Q90WR8 1-771); test: EMSA; EMSA buffer, salt, pH and temperature not given in the material; competitors at 50-fold molar excess; settings: protein: recombinant; label: 32P (probe); blunt
Sequence of SP3, recombinant (Q90WR8 whole entry): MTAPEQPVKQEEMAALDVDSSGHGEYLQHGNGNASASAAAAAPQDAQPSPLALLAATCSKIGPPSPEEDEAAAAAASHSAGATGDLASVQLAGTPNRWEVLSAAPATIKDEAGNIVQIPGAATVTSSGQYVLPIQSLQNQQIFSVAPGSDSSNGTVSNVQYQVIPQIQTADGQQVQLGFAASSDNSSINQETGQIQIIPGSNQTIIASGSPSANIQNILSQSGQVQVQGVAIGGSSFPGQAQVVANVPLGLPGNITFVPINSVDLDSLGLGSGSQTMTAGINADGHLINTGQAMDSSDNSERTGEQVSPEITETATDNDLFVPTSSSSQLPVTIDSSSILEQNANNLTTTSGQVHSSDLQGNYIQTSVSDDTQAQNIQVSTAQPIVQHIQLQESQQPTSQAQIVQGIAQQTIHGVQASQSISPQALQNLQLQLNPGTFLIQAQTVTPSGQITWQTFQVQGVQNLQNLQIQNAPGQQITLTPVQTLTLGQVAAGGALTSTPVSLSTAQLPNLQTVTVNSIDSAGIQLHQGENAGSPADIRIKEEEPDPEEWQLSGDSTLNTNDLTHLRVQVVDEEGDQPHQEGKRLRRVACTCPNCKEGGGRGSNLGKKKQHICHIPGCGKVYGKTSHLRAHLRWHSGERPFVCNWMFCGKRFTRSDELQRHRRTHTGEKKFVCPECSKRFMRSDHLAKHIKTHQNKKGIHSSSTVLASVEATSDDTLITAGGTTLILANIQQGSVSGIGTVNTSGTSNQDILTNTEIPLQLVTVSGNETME

SP1, recombinant = SP1, recombinant (Gallus gallus (chicken), UniProt A0A8V1A4P9 1-760); test: as above; settings: protein: recombinant; label: 32P (probe); blunt
Sequence of SP1, recombinant (A0A8V1A4P9 entry or part of it): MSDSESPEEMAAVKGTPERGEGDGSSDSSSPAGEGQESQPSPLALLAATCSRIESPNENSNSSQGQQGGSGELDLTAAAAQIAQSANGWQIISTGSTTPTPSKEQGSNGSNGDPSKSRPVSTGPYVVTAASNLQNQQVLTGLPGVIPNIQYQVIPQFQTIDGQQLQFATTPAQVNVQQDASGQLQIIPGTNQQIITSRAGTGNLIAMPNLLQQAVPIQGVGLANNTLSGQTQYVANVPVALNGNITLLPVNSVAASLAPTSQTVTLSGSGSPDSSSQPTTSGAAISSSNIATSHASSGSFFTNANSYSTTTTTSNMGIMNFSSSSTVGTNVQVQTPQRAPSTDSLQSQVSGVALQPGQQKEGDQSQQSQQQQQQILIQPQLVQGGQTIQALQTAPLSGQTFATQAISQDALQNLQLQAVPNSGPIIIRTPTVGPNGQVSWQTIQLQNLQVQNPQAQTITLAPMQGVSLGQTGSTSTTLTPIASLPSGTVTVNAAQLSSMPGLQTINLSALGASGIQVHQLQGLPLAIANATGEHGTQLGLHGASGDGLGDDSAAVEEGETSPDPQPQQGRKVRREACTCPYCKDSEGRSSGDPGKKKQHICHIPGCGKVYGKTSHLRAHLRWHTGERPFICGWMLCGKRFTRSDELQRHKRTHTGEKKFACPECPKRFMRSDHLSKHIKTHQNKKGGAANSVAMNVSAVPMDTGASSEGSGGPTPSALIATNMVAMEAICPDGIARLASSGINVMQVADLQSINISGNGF

VEZF1 (BGP1) [1] = molecular target: T1, VEZF1 (BGP1); test: as above; settings: protein: ivt; label: 32P (probe); blunt
ZF5, recombinant [2] = molecular target: T2, ZF5, recombinant; test: EMSA; no specificity for the dG-dC string; EMSA buffer, salt, pH and temperature not given in the material; competitors at 50-fold molar excess; settings: protein: recombinant; label: 32P (probe); blunt
VEZF1 (BGP1) [3] = molecular target: T1, VEZF1 (BGP1); test: EMSA; EMSA buffer, salt, pH and temperature not given in the material; competitors at 50-fold molar excess; settings: protein: ivt; label: 32P (probe); blunt; remark: listed apart in the source
ZF5, recombinant [4] = molecular target: T2, ZF5, recombinant; test: as above; settings: protein: recombinant; label: 32P (probe); blunt

Binder | binding result (SP3, recombinant) | binding result (SP1, recombinant) | binding signal (VEZF1 (BGP1) [1]) | binding result (ZF5, recombinant [2]) | binding result (VEZF1 (BGP1) [3]) | binding result (ZF5, recombinant [4])
HS4 FV wt (dsDNA) DNA 1: CCTGCAGACACCTGGGGGGATACGGGGAAAAAGCTTTAGG DNA 2: CCTAAAGCTTTTTCCCCGTATCCCCCCAGGTGTCTGCAGG | no binding | no binding | ~5 fold lower affinity than FI and betaA sites | – | – | –
HS4 FIII wt (dsDNA) DNA 1: AGGCGCGCCCCGGTCCGGCGCTCCCCCCGCATCCCCGAGCCGGGGCGCGCCT DNA 2: AGGCGCGCCCCGGCTCGGGGATGCGGGGGGAGCGCCGGACCGGGGCGCGCCT | no binding | no binding | ~2 fold lower affinity than FI and betaA sites | binds | – | –
glo wt (betaA-globin promoter, G16) (dsDNA) DNA 1: AATTGCAGAGCTGGGAATCGGGGGGGGGGGGGGGGCGGGTGGTGGTGTGG DNA 2: CCACACCACCACCCGCCCCCCCCCCCCCCCCGATTCCCAGCTCTGCAATT | binds | binds | – | – | binds | –
HS4 FI wt (dsDNA) DNA 1: GGAGCTCACGGGGACAGCCCCCCCCCAAAGCCCCCAGGGA DNA 2: TCCCTGGGGGCTTTGGGGGGGGGCTGTCCCCGTGAGCTCC | binds | binds | – | – | binds | no binding
